Assay results taken from article PMC1974823.

Biological target: T1, rFimR (Porphyromonas gingivalis (ATCC 33277?)) (UniProt B2RJ77)
T1 sequence: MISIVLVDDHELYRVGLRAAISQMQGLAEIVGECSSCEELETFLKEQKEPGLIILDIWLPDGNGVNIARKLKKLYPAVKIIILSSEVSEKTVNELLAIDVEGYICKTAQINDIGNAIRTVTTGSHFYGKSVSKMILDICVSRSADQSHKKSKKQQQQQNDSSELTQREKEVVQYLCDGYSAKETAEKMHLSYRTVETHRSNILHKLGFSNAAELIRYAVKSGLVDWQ
Assay: EMSA

Row | Sequence | binding
1 | CAGATGGGTTGTTGCTCAAGGAGAACGTCGCCAATACCTAAGCAAGAAAAGAGGAACTGTTCCAGAAAATACTTGGGTTACTCCGGGTTCTGGTTTCGTTCCTACCAGCAGCACTTTCTAT (double strand) [mfa1 coding region (121 bp)] | no binding
2 | TGTAACGGGTTCTGCCTCGTTGTCTTTGTTACAAGCTGTCATAGCAAGAGCAGCAAGTCCCAACAAGAAAAACTTTGTTTTTTTCATCTCGTTTTTGTTTTAAAAGTGAATATTGTTTTCTAAAAATCTAATCTTTTCCCATTTAGAGATTGTCTTGCATATAGCGTCG (double strand) [fimA promoter (176 bp)] | no binding
